Values quoted from earlier work, collected in paper PMC11401910, “Dual client binding sites in the ATP-independent chaperone SurA” (Nature Communications, 2024).

Molecular target: OmpX (Escherichia coli) (UniProt P0A917)
Settings: cited from earlier work

Chain of OmpX (Escherichia coli) (P0A917 24-171): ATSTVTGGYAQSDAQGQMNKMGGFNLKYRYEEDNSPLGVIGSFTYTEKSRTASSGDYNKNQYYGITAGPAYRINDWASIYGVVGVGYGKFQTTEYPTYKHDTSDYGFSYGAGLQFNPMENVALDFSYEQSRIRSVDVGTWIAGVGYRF
Chain of SurA (P0ABZ6 21-428): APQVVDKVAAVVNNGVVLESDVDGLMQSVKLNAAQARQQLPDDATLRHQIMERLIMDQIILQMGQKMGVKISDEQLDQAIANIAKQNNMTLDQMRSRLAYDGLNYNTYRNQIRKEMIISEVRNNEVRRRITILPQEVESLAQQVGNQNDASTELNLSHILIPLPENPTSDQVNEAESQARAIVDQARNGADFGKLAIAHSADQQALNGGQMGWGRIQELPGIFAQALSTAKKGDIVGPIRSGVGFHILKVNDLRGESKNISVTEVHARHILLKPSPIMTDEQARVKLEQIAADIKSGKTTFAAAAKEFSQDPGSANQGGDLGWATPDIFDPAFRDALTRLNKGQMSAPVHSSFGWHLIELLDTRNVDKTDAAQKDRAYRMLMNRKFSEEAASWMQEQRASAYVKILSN

Q: Which Kd does the source give for SurA (from UniProt P0ABZ6) here?
A: 1000 nM
